Results on two molecules are retold here after US20110158985A1.

Substrate in this assay: F protein of RSV (Long strain) (RSV (Long strain)) (UniProt P12568)
The assay can be described thus: cell-based or functional assay.

Chain of F protein of RSV (Long strain) (RSV (Long strain)) (P12568 26-574): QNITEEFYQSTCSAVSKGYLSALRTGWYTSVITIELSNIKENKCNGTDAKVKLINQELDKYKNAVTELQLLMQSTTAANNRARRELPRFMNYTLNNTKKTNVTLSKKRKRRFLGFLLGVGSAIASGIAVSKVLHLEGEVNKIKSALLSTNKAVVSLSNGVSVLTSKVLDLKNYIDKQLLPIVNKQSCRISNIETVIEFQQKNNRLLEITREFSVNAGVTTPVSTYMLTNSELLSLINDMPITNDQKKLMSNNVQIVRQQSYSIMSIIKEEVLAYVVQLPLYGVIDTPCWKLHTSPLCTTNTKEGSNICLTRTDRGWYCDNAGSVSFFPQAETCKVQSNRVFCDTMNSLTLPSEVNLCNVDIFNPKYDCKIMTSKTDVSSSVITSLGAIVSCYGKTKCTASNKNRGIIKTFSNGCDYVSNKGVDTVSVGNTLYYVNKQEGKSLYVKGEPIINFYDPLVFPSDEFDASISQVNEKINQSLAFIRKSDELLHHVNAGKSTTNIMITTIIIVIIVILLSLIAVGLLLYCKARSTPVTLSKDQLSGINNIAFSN

B1: P12f4 Fab (Fab, V domains shown)
VH: QVTLRESGPALVKPTQTLTLTCTFSGFSLSTPGMSVGWIRQPPGKALEWLADIWWDGKKHYNPSLKDRLTISKDTSKNQVVLKVTNMDPADTATYYCARDMIFNFYFDVWGQGTTVTVSS
VL: DIQMTQSPSTLSASVGDRVTITCSLSSRVGYMHWYQQKPGKAPKLLIYDTRGLPSGVPSRFSGSGSGTEFTLTISSLQPDDFATYYCFQGSGYPFTFGGGTKVEIK
Broadly, the IC50 is the concentration that inhibits the measured activity by half. Turning to B1, the concentration for half-maximal inhibition (IC50) came to 0.7 nM, the Mean IC50 (Control) came out at 0.0351 mg/L and the Mean IC50 (Curve) is 0.0464 mg/L.

B2: A1h5 Fab (Fab, V domains shown)
VH: QVTLRESGPALVKPTQTLTLTCTFSGFSLSTAGMSVGWIRQPPGKALEWLADIWWDGKKHYNPSLKDRLTISKDTSKNQVVLKVTNMDPADTATYYCARDMIFNWYFDVWGQGTTVTVSS
VL: DIQMTQSPSTLSASVGDRVTITCSLSSSVGYMHWYQQKPGKAPKLLIYDTFFHRSGVPSRFSGSGSGTEFTLTISSLQPDDFATYYCFQGSGYPFTFGGGTKVEIK
B2: the Mean IC50 (Control) was 0.176 mg/L and the Mean IC50 (Curve) turned out to be 0.194 mg/L.
